Consider one sequence from article PMC12455584.

The target in this series is T1, scIHF-His (single-chain IHF, ihfA-linker-ihfB-6xHis) internal_change (Salmonella enterica serovar Typhimurium 14028s?) (UniProt P0A1S0).
T1 sequence: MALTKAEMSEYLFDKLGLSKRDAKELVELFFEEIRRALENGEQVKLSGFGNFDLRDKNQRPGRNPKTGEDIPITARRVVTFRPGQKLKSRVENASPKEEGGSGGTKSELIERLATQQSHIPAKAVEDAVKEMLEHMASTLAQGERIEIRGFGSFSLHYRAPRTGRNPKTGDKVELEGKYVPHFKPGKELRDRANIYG
The series can be described thus: EMSA. Particulars: EMSA: 25 mM Tris pH 8, 75 mM NaCl, 10% glycerol, 0.5 mM DTT, 0.5 mM EDTA, 1 ug poly(dIdC), 0.1 mg/ml BSA, 0.87 pmol DNA in 20 ul, 37 C 10 min; gel 4-15% PAGE ….

Take “CCCTCGTGTACCATTGTTTACTTTTTGATCTAAAAATTACATCAAATGAACACAAAAAACGGTATAAAAAACGCTC (double strand) [intA promoter IHF BS(+)]”: the binding entry is “binds”.
